Test results: patent publication US20260116921A1, “PEPTIDE INHIBITORS OF INTERLEUKIN-23 RECEPTOR AND THEIR USE TO TREAT INFLAMMATORY DISEASES” (priority 2018, published 2026)
Numbered stars: 1 amine (or outer) side, 2 acyl side, 3 side chain; on linkers, the order of the positions; unused ones are H or OH. Bridge positions count the residues as written; N and C are the ends. Square brackets hold non-standard residues; d marks the D form. Peptide text beside a SMILES is read from it. Trp(7-Et) = 7-ethyl-tryptophan, CCc1cccc2c(C[C@H](N[*:1])C(=O)[*:2])c[nH]c12; Trp(7-OMe) = COc1cccc2c(C[C@H](N)C(=O)O)c[nH]c12; His(π-Bom) = N[C@@H](Cc1cncn1COCc1ccccc1)C(=O)O; Trp(7-Me) = Cc1cccc2c(C[C@H](N)C(=O)O)c[nH]c12; 2Nal = N[C@@H](Cc1ccc2ccccc2c1)C(=O)O; AEF = NCCOc1ccc(C[C@H](N)C(=O)O)cc1; Cit = NC(=O)NCCC[C@H](N)C(=O)O; Pen = CC(C)(S)[C@H](N)C(=O)O; αMeK = C[C@](N)(CCCCN)C(=O)O; NMeA = CN[C@@H](C)C(=O)O; Aib = CC(C)(N)C(=O)O; βAla = NCCC(=O)O

B1: SEQ ID NO: 341 (peptide)
peptide: Ac-[Pen]NT[Trp(7-Me)][Cit][Pen][AEF][2Nal][αMeK]K(Ac)N[Aib]G-NH2
modifications: disulfide 1-6
SMILES: CC(=O)NCCCC[C@H](NC(=O)[C@](C)(CCCCN)NC(=O)[C@H](Cc1ccc2ccccc2c1)NC(=O)[C@H](Cc1ccc(OCCN)cc1)NC(=O)[C@H]1NC(=O)[C@H](CCCNC(N)=O)NC(=O)[C@H](Cc2c[nH]c3c(C)cccc23)NC(=O)[C@H]([C@@H](C)O)NC(=O)[C@H](CC(N)=O)NC(=O)[C@@H](NC(C)=O)C(C)(C)SSC1(C)C)C(=O)N[C@@H](CC(N)=O)C(=O)NC(C)(C)C(=O)NCC(N)=O
B2: SEQ ID NO: 260 (peptide)
peptide: Ac-[Pen]NT[Trp(7-Me)][Cit][Pen][AEF][2Nal][αMeK]K(Ac)NS-NH2
modifications: disulfide 1-6 (inferred)
B3: SEQ ID NO: 291 (peptide)
peptide: Ac-[Pen]NT[Trp(7-Me)]K(Ac)[Pen][His(π-Bom)][2Nal][αMeK]K(Ac)N[dL]-NH2
modifications: disulfide 1-6
B4: SEQ ID NO: 284 (peptide)
peptide: Ac-[Pen]NT[Trp(7-Et)]K(Ac)[Pen][AEF][2Nal][αMeK]K(Ac)N[dL]-NH2
modifications: disulfide 1-6 (inferred)
B5: SEQ ID NO: 300 (peptide)
peptide: Ac-[Pen]NT[Trp(7-OMe)][Cit][Pen][AEF][2Nal][αMeK]K(Ac)N[dK]-NH2
modifications: disulfide 1-6
SMILES: COc1cccc2c(C[C@@H]3NC(=O)[C@H]([C@@H](C)O)NC(=O)[C@H](CC(N)=O)NC(=O)[C@@H](NC(C)=O)C(C)(C)SSC(C)(C)[C@@H](C(=O)N[C@@H](Cc4ccc(OCCN)cc4)C(=O)N[C@@H](Cc4ccc5ccccc5c4)C(=O)N[C@@](C)(CCCCN)C(=O)N[C@@H](CCCCNC(C)=O)C(=O)N[C@@H](CC(N)=O)C(=O)N[C@H](CCCCN)C(N)=O)NC(=O)[C@H](CCCNC(N)=O)NC3=O)c[nH]c12
B6: SEQ ID NO: 276 (peptide)
peptide: XNTXQXXXXKNX
modifications: Ac-[Pen]-N-T-[W(7-Me)]-Q-[Pen]-Phe[4-(2-aminoethoxy)]-[2-Nal]-[DiethylGly]-[Lys(Ac)]-N-[bA]-NH2; Pen-Pen disulfide
B7: SEQ ID NO: 263 (peptide)
peptide: Ac-[Pen]NT[Trp(7-Me)][Cit][Pen][AEF][2Nal][αMeK]K(Ac)N[dT]-NH2
modifications: disulfide 1-6 (inferred)
B8: SEQ ID NO: 274 (peptide)
peptide: XNTXQXXXXKNX
modifications: Ac-[Pen]-N-T-[W(7-Me)]-Q-[Pen]-Phe[4-(2-aminoethoxy)]-[2-Nal]-[Achc]-[Lys(Ac)]-N-[bA]-NH2; Pen-Pen disulfide
B9: SEQ ID NO: 340 (peptide)
peptide: Ac-[Pen]NT[Trp(7-Me)][Cit][Pen][AEF][2Nal][αMeK]K(Ac)N[Aib][βAla]-NH2
modifications: disulfide 1-6
SMILES: CC(=O)NCCCC[C@H](NC(=O)[C@](C)(CCCCN)NC(=O)[C@H](Cc1ccc2ccccc2c1)NC(=O)[C@H](Cc1ccc(OCCN)cc1)NC(=O)[C@H]1NC(=O)[C@H](CCCNC(N)=O)NC(=O)[C@H](Cc2c[nH]c3c(C)cccc23)NC(=O)[C@H]([C@@H](C)O)NC(=O)[C@H](CC(N)=O)NC(=O)[C@@H](NC(C)=O)C(C)(C)SSC1(C)C)C(=O)N[C@@H](CC(N)=O)C(=O)NC(C)(C)C(=O)NCCC(N)=O
B10: SEQ ID NO: 322 (peptide)
peptide: XNTXXXXXXKNL
modifications: Ac-[Pen]-N-T-[W(7-Me)]-[Lys(Aib)]-[Pen]-Phe[4-(2-aminoethoxy)]-[2-Nal]-[a-MeLys]-[Lys(Ac)]-N-[(D)Leu]-NH2; Pen-Pen disulfide
B11: SEQ ID NO: 233 (peptide)
peptide: Ac-[Pen]NT[Trp(2,5,7-tritBu)]Q[Pen][AEF][2Nal][αMeK]K(Ac)N[βAla]-NH2
modifications: disulfide 1-6
B12: SEQ ID NO: 265 (peptide)
peptide: Ac-[Pen]NT[Trp(7-Me)][Cit][Pen][AEF][2Nal][αMeK]K(Ac)N[NMeA]-NH2
modifications: disulfide 1-6; not fully specified; printed as Ac-[Pen]-NT-[W(7-Me)]-[Cit]-[Pen]-Phe[4-(2-aminoethoxy)]-[2-Nal]-[a-MeLys]-[Lys(Ac)]-[N-MeAla]-NH2
B13: SEQ ID NO: 320 (peptide)
peptide: XNTXXXXXXKNL
modifications: Ac-[Pen]-N-T-[W(7-Me)]-[Lys(Gly)]-[Pen]-Phe[4-(2-aminoethoxy)]-[2-Nal]-[a-MeLys]-[Lys(Ac)]-N-[(D)Leu]-NH2; Pen-Pen disulfide
B14: SEQ ID NO: 249 (peptide)
peptide: XNTXKXXXXKNX
modifications: Ac-[Pen]-NT-[W(7-Me)]-[Lys(Ac)]-[Pen]-Phe[4-(2-aminoethoxy)]-[2-Nal]-[a-MeLys]-[Lys(Ac)]-N-[Cit]-NH2; Pen-Pen disulfide
B15: SEQ ID NO: 256 (peptide)
peptide: Ac-[Pen]NT[Trp(7-Me)][Cit][Pen][AEF][2Nal][αMeK]K(Ac)N[dR]-NH2
modifications: disulfide 1-6 (inferred)
B16: SEQ ID NO: 277 (peptide)
peptide: XNTXQXXXXKNX
modifications: Ac-[Pen]-N-T-[W(7-Me)]-Q-[Pen]-Phe[4-(2-aminoethoxy)]-[2-Nal]-[Acbc]-[Lys(Ac)]-N-[bA]-NH2; Pen-Pen disulfide
B17: SEQ ID NO: 319 (peptide)
peptide: XNTXXXXXXKNL
modifications: Ac-[Pen]-N-T-[W(7-Me)]-[Lys(trifluoropropionic)]-[Pen]-Phe[4-(2-aminoethoxy)]-[2-Nal]-[a-MeLys]-[Lys(Ac)]-N-[(D)Leu]-NH2; Pen-Pen disulfide

Key:
in vitro [1] = assay type: in vitro ADME; parameters: half-life: dose or concentration left out as unconfirmed; conditions: simulated intestinal fluid (SIF) with pancreatin, pH 6.8, 37° C., § matrix is 100 fold dilution of standard SIF concentration, read-out: SIF t½ (converted)
IL-23R [2] = target: T1, IL-23R (Homo sapiens, UniProt Q5VWK5); assay: DB cells IL23R pSTAT3 cell assay (pStat3 HTRF); assay type: cell-based; conditions: Table E3; DB cells, IL-23 0.5 nM, 30 minutes at 37° C.; read-out: pStat3 HTRF (IC50)
T1 sequence (Q5VWK5 24-629): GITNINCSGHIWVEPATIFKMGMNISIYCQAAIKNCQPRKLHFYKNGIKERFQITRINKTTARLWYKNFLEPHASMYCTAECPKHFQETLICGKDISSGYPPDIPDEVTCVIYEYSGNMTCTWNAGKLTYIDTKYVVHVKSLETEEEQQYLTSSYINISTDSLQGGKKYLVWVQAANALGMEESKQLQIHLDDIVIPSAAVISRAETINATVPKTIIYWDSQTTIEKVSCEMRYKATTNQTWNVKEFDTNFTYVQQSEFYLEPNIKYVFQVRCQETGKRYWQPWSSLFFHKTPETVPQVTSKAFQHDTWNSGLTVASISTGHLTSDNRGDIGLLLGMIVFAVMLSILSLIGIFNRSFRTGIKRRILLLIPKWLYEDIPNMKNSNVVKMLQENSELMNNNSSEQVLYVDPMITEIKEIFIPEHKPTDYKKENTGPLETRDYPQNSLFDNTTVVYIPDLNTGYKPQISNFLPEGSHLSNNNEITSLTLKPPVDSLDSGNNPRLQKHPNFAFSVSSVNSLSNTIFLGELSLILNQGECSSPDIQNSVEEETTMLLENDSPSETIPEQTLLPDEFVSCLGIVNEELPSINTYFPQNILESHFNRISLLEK
Procedure, shortened: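 DB cells (5×10E5/well, RPMI-1640 + 10% FBS) stimulated with 0.5 nM final IL-23 plus serially diluted test peptides for 30 min at 37 °C, 5% CO2. Phospho-STAT3 (Tyr705) in lysates measured by HTRF using a two-plate protocol.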

in vitro [3] = conditions: both, SD, rat, plasma (EDTA)
in vitro [4] = conditions: human, 20% fecal homogenate (supernatant), anaerobic, pH 6.8
in vitro [5] = conditions: cynomolgus monkey, 20% fecal homogenate (supernatant), anaerobic, pH 6.8
Procedure: Fecal homogenate (20%) was prepared by adding 4 mL of growth medium (1 liter contains 2 g peptone water powder, 2 g yeast extract, 0.1 g NaCl, 0.04 g KH2PO4, 0.01 g CaCl2·6H2O, 0.01 g MgSO4·7H2O, 2 mL Tween 80, 0.5 g bile salts, 0.5 g L-cysteine HCl, 2 g NaHCO3, and 10 μL Vitamin K, pH adjusted to 6.8, and sterilized by filtration through a 0.22 μm filter) to every gram of feces (pooled freshly collected human or cynomolgus monkey feces). The suspension was vortexed to break up large clumps, and homogenized using a bead mill homogenizer. Centrifuged the homogenate at 2800×g for 15 min. The supernatant is taken out and used for incubations. DMSO stocks (10 mM) were first prepared for the test compounds. Incubations were performed in an anaerobic chamber conditioned at 37° C. Aliquots of the DMSO solutions were dosed into 1.0 mL aliquots of 20% fecal homogenate, which are pre-warmed to 37° C. The final test compound concentration was 20 μM. At each timepoint (0, 20 min, 1, 3, 6, or 24 hours), 100 μL aliquot of each incubation mixture is taken out and added to separate tubes containing 300 μL of 50% acetonitrile/50% methanol and an internal standard to terminate the reaction. Samples were taken out of the anaerobic chamber and stored at 4° C. until the end of the experiment. After the final timepoint is sampled, the tubes were mixed and then centrifuged at 3,000 rpm for 10 minutes. Aliquots of the supernatant were removed, diluted 1:1 into distilled water containing 0.1% formic acid, and analyzed by LC/MS/MS. Percent remaining at each timepoint was calculated based on the peak area response ratio of test to compound to internal standard. Time 0 was set to 100%, and all later timepoints were calculated relative to time 0. Half-lives were calculated by fitting to a first-order exponential decay equation using Graphpad or Excel.

IL-23R [6] = target: T2, IL-23R (human, UniProt Q5VWK5 24-629); assay: cell-based or functional assay
T2 sequence (looked up): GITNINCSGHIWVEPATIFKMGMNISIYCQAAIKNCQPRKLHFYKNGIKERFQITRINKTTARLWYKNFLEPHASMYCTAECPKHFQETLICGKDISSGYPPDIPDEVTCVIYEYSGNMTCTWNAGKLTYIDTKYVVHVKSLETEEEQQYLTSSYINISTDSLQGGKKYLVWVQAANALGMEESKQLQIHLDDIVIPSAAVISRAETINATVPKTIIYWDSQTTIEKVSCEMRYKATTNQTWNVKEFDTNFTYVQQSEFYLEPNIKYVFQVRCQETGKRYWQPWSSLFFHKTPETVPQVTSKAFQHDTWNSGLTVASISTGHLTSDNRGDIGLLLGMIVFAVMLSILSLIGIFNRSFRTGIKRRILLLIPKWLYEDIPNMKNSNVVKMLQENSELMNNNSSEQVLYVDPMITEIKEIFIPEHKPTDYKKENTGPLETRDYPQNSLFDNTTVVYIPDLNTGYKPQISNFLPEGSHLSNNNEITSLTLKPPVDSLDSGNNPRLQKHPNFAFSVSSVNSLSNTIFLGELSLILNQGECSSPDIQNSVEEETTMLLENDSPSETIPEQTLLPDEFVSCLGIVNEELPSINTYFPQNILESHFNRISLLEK

Row | Molecule | pStat3 HTRF (nM) IC50 (IL-23R [6]) [nM] | further results
1 | CC(=O)NCCCC[C@@H]1NC(=O)[C@H](Cc2c[nH]c3c(C)cccc23)NC(=O)[C@H]([C@@H](C)O)NC(=O)[C@H](CC(N)=O)NC(=O)[C@@H](NC(C)=O)C(C)(C)SSC(C)(C)[C@@H](C(=O)N[C@@H](Cc2ccc3ccccc3c2)C(=O)N[C@@H](Cc2ccc3ccccc3c2)C(=O)N[C@@](C)(CCCCN)C(=O)N[C@@H](CCCCNC(C)=O)C(=O)N[C@@H](CC(N)=O)C(=O)N[C@H](CC(C)C)C(N)=O)NC1=O [compound 289] (Ac-[Pen]NT[Trp(7-Me)]K(Ac)[Pen][2Nal][2Nal][αMeK]K(Ac)N[dL]-NH2; disulfide 1-6) | – | half-life (in vitro [1]): 12 h; IC50 (IL-23R [2]): 1 to 10 nM; half-life at 20 μM (in vitro [3]): > 24 h; half-life at 20 μM (in vitro [4]): > 24 h; half-life at 20 μM (in vitro [5]): > 24 h
2 | CC(=O)NCCCC[C@@H]1NC(=O)[C@H](Cc2c[nH]c3c(C)cccc23)NC(=O)[C@H]([C@@H](C)O)NC(=O)[C@H](CC(N)=O)NC(=O)[C@@H](NC(C)=O)C(C)(C)SSC(C)(C)[C@@H](C(=O)N[C@@H](Cc2c[nH]cn2)C(=O)N[C@@H](Cc2ccc3ccccc3c2)C(=O)N[C@@](C)(CCCCN)C(=O)N[C@@H](CCCCNC(C)=O)C(=O)N[C@@H](CC(N)=O)C(=O)N[C@H](CC(C)C)C(N)=O)NC1=O [compound 290] (Ac-[Pen]NT[Trp(7-Me)]K(Ac)[Pen]H[2Nal][αMeK]K(Ac)N[dL]-NH2; disulfide 1-6) | – | half-life (in vitro [1]): 16 h; IC50 (IL-23R [2]): 1 to 10 nM; half-life at 20 μM (in vitro [3]): > 24 h; half-life at 20 μM (in vitro [4]): > 24 h; half-life at 20 μM (in vitro [5]): > 24 h
3 | B1 | < 1 | –
4 | B2 | < 1 | –
5 | B3 | > 100 | –
6 | B4 | < 1 | –
7 | B5 | > 100 | –
8 | B6 | < 1 | –
9 | B7 | < 1 | –
10 | B8 | < 1 | –
11 | B9 | < 1 | –
12 | B10 | < 1 | –
13 | B11 | > 100 | –
14 | B12 | < 1 | –
15 | B13 | < 1 | –
16 | B14 | < 1 | –
17 | B15 | < 1 | –
18 | B16 | < 1 | –
19 | B17 | < 1 | –
